# In PMC4147340, “Mode and specificity of binding of the small molecule GANT61 to GLI determines inhibition of GLI-DNA binding” (Oncotarget, 2014):
# What was measured:
# [1] = system: GLI1 (full length, GLI1-WT); assay: SPR; conditions: Biacore 3000, HBS-P buffer, 20 ul/min, 3 min association, 5 min dissociation; pH, salt and temperature not stated
# [2] = system: GLI1 (full length, GLI1-WT); assay: SPR inhibition; conditions: Biacore 3000, HBS-P buffer, 20 ul/min, 3 min association, 5 min dissociation; pH, salt and temperature not stated
# GLI1 (ΔGLI-DM) = target: T1, GLI1 (ΔGLI-DM) (Homo sapiens, UniProt P08151, E250A/E298A); assay: SPR, ΔGLI-DM immobilized on Ni-NTA chip, GANT61 […] as analyte; format: binding
# T1 sequence (P08151 234-388 E250A/E298A limits assumed): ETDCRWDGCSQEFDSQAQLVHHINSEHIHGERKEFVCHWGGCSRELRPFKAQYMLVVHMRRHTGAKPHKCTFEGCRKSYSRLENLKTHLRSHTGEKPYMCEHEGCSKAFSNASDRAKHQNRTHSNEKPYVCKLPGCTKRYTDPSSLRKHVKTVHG
# GLI1 = target: T2, GLI1 (Homo sapiens, UniProt P08151); assay: SPR (Biacore […]), GLI1 immobilized on CM5 chip, GANT61 […] as analyte; format: binding
# T2 construct: Full length GLI1 (OriGene)
# T2 sequence (P08151 1-1106): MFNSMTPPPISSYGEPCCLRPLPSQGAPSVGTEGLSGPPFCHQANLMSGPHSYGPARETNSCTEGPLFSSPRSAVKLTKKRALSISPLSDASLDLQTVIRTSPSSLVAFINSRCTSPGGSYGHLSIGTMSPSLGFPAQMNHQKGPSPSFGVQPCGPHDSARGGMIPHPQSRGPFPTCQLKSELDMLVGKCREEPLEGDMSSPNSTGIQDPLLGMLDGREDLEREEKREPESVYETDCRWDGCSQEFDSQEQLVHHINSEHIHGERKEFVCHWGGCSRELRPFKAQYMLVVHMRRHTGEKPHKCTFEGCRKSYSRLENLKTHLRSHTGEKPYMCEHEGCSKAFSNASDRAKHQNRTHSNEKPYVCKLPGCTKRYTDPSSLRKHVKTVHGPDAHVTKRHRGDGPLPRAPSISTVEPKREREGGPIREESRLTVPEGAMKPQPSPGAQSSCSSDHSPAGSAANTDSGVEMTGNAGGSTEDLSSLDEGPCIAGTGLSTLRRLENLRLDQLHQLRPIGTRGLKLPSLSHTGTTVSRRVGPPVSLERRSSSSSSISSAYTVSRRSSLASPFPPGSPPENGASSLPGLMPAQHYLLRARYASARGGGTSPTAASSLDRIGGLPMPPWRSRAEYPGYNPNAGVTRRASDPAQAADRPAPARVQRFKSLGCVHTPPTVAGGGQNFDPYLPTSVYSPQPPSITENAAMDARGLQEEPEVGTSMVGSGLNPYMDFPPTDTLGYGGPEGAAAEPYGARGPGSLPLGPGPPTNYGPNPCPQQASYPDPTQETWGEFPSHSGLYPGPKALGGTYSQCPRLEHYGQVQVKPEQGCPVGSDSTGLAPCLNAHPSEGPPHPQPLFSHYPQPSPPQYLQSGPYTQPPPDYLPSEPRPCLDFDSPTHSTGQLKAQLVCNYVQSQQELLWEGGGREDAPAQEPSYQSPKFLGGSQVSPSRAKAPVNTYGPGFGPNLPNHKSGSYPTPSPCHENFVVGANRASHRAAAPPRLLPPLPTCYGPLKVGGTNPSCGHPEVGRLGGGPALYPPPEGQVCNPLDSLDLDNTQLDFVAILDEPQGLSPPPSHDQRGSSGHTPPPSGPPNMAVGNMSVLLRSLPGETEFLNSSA
molecule,measurement,setting,value
biotinylated GLI1 DNA-binding sequence (21-mer),Kd,[1],5.5 µM
same,K half,[2],3.2 µM
CN(C)c1ccccc1CN1CCCN(Cc2ccccc2N(C)C)C1c1ccncc1 [GANT61],Kd,GLI1 (ΔGLI-DM),26.1 µM
same,Kd,GLI1,7.5 µM
